system: Saccharomyces cerevisiae; test: transcriptional activation domain activity (GFP:mCherry ratio, weighted mean of sorted bins, harmonized to initial dataset scale) (arbitrary fluorescence ratio units); higher = stronger transcriptional activation; conditions: beta-estradiol 1 µM; induction time 4 h
In short: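 Protein tiles carrying barcodes and fused to an estradiol-inducible synthetic transcription factor were placed at the URA3 locus of yeast diploids with a GFP reporter. Following 4 hours at 30 °C in SC with 1 uM beta-estradiol, cells were sorted into 8 GFP:mCherry bins, barcodes were sequenced, and tiles with fewer than 50 reads were discarded. Activation activity is given as the read-weighted mean of bin median fluorescence, averaged across barcodes and linearly mapped to the initial dataset scale.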

Sequence	transcriptional activation domain activity
GEEARDRGHRSGSGRHRSRDRERRRRRDRDDDRHTSSRHSRRERSPEEDSSRR	36700
YGVHLLARFAWWFPSMSAIIAKLEGTINKLHILSHKELCQIIHNLNWLLYVGL	71400
MDFTLTWVKLHVYFFFLPYPCWKINSLVYPFFFLFFLSFPFSFFFSLFSLFLC	69100
VLICAHGQQQMGSGVFLGQDLLSRARMESIFCRSTVPVIVITTAYCSGLWAVP	55900
MHRLHYLMCIIIGVRLTAVVGLGRHRVVYVYCFCFSDTSRKMVRQDGIKLFTA	43200
MPKLNLYKIFLSILCSVVILVVWFPNLESILLLRVLVFHLVKYIGLCLLFFLC	56000
HVLEYACSIAISRQQERRKRKAIRKSESLNALAKALLRLLSVFSTIRLASGQL	91500
ASSAPAAASSAPDAASSAPAAASSAPAAASSAPPAAASPAASPAAGGFQLQNG	38200
TKCSLDKMLPMLLPLKDALVHMDLMEYYFQTGYLYYLAFSCFILLLYPPFMVL	53800
HARLKIIETATKAWSGALDADIKTKMAQSTAGFSGADVKVRAPHPLWDIHRPL	37200
VGRLVWFVTLLHVLFWVVQVLKDRRALTGKLVFAYVWQYQKFRFAWVAFLSMT	75200
LYFTCNERVGACPPSFEYIYDTFFASVTSQEFWRSLFDLEAFYMYLGWYAFCV	65600
RGRLPCRYTIWIYSLTRVACLLGVIVCTVGMDVSTSYNCQLWVSSVATLFCVT	70300
GERDIDVSSIEDVVKRECKKRVENEKLAQVGYAYDLAHSKAAAHLEAVKKLRK	32900
MHRELTGYFFSFFFFLFFFSFFIHISRLAVYIWDWVTSLHFFIFVILNILGSS	66700
YLMHGLVLFSIVPSVFIPIYEYHQLSYIAASMICAFIYIIFAVICGWLFWWTV	40600
GKPRKRLAQACLTCREKKIKCEPGYPKCHQCAKSQRVCRGGLNQASIGNASGE	36100
LCTQLLVKILVFSAYRFSLTVLNLVSYLTIDARMVSIVVLGKSLFPLLVFVLL	41000
DPTKSVSAYWVPGGDYISPALQILMNEYLLSFCPTITLPQSLILVSKYFGFLL	60700
MLTLLLLTLIIFLSSTLVLLFFFLIPLFLICLLTFLLIFFSSPRAFFSFPHPT	47800
AAATAEGAASSRQPSERERKREREREEERERGKEREREKERKQAAEASTSANE	58800

Sequence	transcriptional activation domain activity
NWYWLASTMYFLYGESVIYYFKHIVLVDKVLLPLATHHRFISFVLYVIGFVFF	74800
LGIRSILETAYRINRLTHMCLQHLLTRCNNLEPLELVGSVLFFLDKKLKRPPE	50300
MFFCSFFRWGFIFFFSFLFFSFILLCWCFLVFLNFATDPACNLPFSFLVFIPR	57600
FILYSLLLIPFPLNYILSYIFFFFFLILWGIYLAMRGFFKSWFSLWAWAGNGI	64600
ESDGGGEESGEGEERRKRRKKERLERRERKLKAKEEKKKKKSRGDGEAATKSQ	25100
IGVRFDTSIKFINGHLERFLAYLGDPLLKQLCSGEILRRLLLLIIDPPILWND	79200
IRFTLPTLVFAAVQLARRFKLLEAGGWSEWARKMCSLYKFVHQIIGLLYTRVE	62600
SKPSSNGRSDCSKHSTGKDASNKKNNRGKSKKAKKKTAAAKANTTDNESDSSD	33600
IQVRLTAFDCLFVLKGLTESTLTQYFLSVIRDDPCVYVSHYVARAMLAWLGLA	55600
YSRRDRPRDRGDRGDRDGGEERGGRRDRGDRNDRFGGEDRGGRGRRDGGGGGG	10400
PAPSAAPAPAKEEDDDDEKEEAGGKADAKKKKKKKGKKDDEPAPAAAPAAAGK	29400
MGMEYIFCLSLSSWGYIFFSFHGFPLFLIFIFSFLARFFLLFFHLFFSFSFFA	65400
ELWHSLYMLFKTYWCRLLHYALSLVLLCSFIVRLVSVIAILDSKRCGLTLFAA	73200
KVVLLFAGWIIKIIVAKLMLAWSQSMRKVIVQRAQLVYRFGINGMVFYSIGCA	60400
RRRKSNSTKPGNAGSKPAKKNKGANSNERERESKEVDEDEDEGNGGGEGEGEE	8620
VTCFGILCFLLSALYLCIGFDPFINQLLYCGVLWLFQGIYFVLFGMKVALHFQ	36200
DYSIAQFRFLQRLLLVHGHWNYNRIAQYALATFWKEMLFYCIQLLYQRWNGYT	37500
EKKERAAEPIAEITTEAAAEPKAAAEEATPKKDKKEKKSKKEKKTEESAVTSE	34600
ERERDRDRDRERDRDRDRERAREREHERNHERRKRRRERDRERRRGKSAAAAA	33800
NKWLNVIQKFLKELDGRDKLMKTIQYFIKILLHYKMARAKHWSSLTSHLSMTR	66400
LYMLKIVNWAVLYASLILATLLWCTIFIIYRILKVGGVTAGMRAYHRVIELLV	83500

Sequence	transcriptional activation domain activity
LSSSPSSQSASSTSTVLVVGTDDKKVKEAGDELKSKLGVKGGGKGPRWSGKFT	23800
ALYSLFIECTLAPMLLKAIKDRVGEITLDFCWRAYKVYLTSICYLWKNVSLII	40600
MSLASLAAQRSNCMKRAVGCVLVGRERRVISTGYNGTPRGIRNCGEGGCARCN	44500
RVEAQVRDRRVEAQVRDRRAEAQVRARDHRSKVQVRNRQSKAEAEAQVRSQAR	33900
MTWRGLSLLLSVLLITWCDPAFFPPVYIQFLFIFIFAWLHLIFLFLIQYLGCI	37900
QGIGLMYLVLVMLCLASLLITNLHFLTVYRSTLIHSYMSQLIVFSFLLPLSLV	44700
EVMKITPVQKQTRAGQRTRFKAFVAIGDSNGHVGLGVKCAKEVASAIRGAIIL	61100
DREHRSKHRRHSSDSRSRSHSHRERRKDKSKHREKEKDKDRKKRKKEKERRRD	36500
VPRHLFEKSTLKSLFYVGRHLGLTAAFYVFATHIDRIAWELCARFGYGHRIRG	20700
LSRGSCFVFWIFFSVPPPLFPFIYSYIFFFSFLLWFSVFVSVVFSFFSFWFFF	55700
IEGPTLSDWFRIFERAFSLRELHWVYNYEDSYAMKPDRVIVLLNLWQLVAPNV	42800
DQKLPNPDDFANFEARIKLLSYDDRLSFYQRYCLKINMQVYYYVLSYILMLTS	53300
TSIFGSNNNTGGTMFGSNTNTSSPFGGGGTSNTSIFARRFALSLALLRSPTSY	30900
SSSSQTSTSASVLLVFGSDERYVKAAGDLLKSRLNVKGGGKGTRWSGKYTGVW	31200
MADEEGASPRELILEACRRNNTSLLEETLADLASSASKAKQDPTGYVAKTLNE	42600
LPHFPIIHPSLLDLDLDSLQRYTNEDGYDDAENAQLFDRLSQGTDKEYDYEHY	71500
MEWHLLGSCLAGLVWGVFYIFFFFAACLIGFFPYHYHYLLLLLVLLTTNILFV	49500
YYPLFLGRLLPLSLLSFFVYFILFTFAFLPQLAFLYIFHGRGAWLNAIFLVLG	44200
HSSSPEDQERKRSKSRLRDAAAAGAAALGVNEYENRKDRKKRERRRERSERRY	24200
EVYFGLVNRRFRELLLVHERCFDLKVPNYRLMSILLAYLLRHTMVTPKVKYPE	29700
MPHLCVSVCLFLVLVMKRWLHVCRDIICRSLSWPEYEFSHFCSLIMRVLMLLL	76300

Sequence	transcriptional activation domain activity
MWLVEVQLLHQSHSLLSHIICLFFLSPHLPSFVFSGALFVYSVMLVSLFFLYL	37400
NLQKIISYLLPAGSWSEDWPIILNVFFGCPLPLSSFLMVIICCFTDLFCCLTL	47100
VPSDSRRCRLKGVTVFTWWRNVFRQALRHQRWICLQYITSFEREWRSVLAIVR	44800
VIFSFLVLNFFYFSISFFLSSSFISYFHFHLSLFPFPFSFVFLIHYLFSFIVN	26300
GAQTSGPSSSAGSNNNSSSSSSEEDEPATGGSNGTQLKGKPRKTAAKRATSSG	35300
RKDKSKDTKERDVSKRQRGSSRNKGTKAKGTQTKQNEDEEDIVKTRKSKAKDK	15200
AAPAPAKRTAAAAGLEEAAASGELSKSQKKKLNKKLKGENGEAAAAPVAAAPS	30900
FQAQGDDELTVVEGDALWIIEQEGDEWWKCRNIKGDEGVVCVVIPRPTGAGRL	36300
ELLRVLNKAHIYLMCLYLFSGLDAHMGILRDFKLIDSHYRLSLHTLICVLVSW	71000
GYIGLSSGYFWSGLLYNVSITISLYCLAMFWVCLHDDLVPFRPVPKFLVIKLV	53000
MRLYCKVVYCHLFVSYLLPLSLTAHLNHLSKGRSLAIFCLLVLILSSFLFSFS	27000
GGAAPAAAPADNRPPEERYAEQLRQLNDMGFFDFDRNVAALRRSGGSVQGAIE	44000
MRLGQLYSLFLFPSFLLSFFIMPLVSVTKYTPGVDNIYFFFFLFFFFFLFFFL	36900
ALVTVLLLLMGYLPHLNTVTLTVRTFRNRLSHHDFSQHELAIFLDLLPRRCPN	98800
LNWYFLGTFMYFLYGESIIYYFKHVLLVDRILLPLATHHRFISFMLYIIGFVF	74300
YGARPAAAAEEEEAAEPAEEEAAGEATEAEAGEEEAEATGEEETAEGEGAEGA	25500
LILARRKGDDRFRRIFMFTMCRLLVTRNHNPDLRRLVTEYLLNVDRFMILLLG	59000
ESAKDKENAKGRKEAEKKKNKEEKERVKKESRERERESRRSAEGRKRPALASL	25400
SALFCKIWTIIQAYYIVISFISIHNCMPCTMPFHHECVGSIPLWLWVTWLPSI	40400
MSPLPSPLSFPLFLFFSLSLSNLVCMPHPLLSSLSLSTPPALFFLYLFFLATL	55100
